Target: the molecule itself
Test: cross-linking + other: mass photometry; complex stabilised by glutaraldehyde cross-linking, then mass photometry (25 to 50 nM, 50 mM HEPES pH 7.4, 150 mM NaCl, 1 mM TCEP)

Row | Protein | stoichiometry N
1 | GST-tagged 14-3-3η (coexpressed with MAST1^DK) (natural protein, UniProt Q04917 1-246, looked up, 14-3-3 protein eta) MGDREQLLQRARLAEQAERYDDMASAMKAVTELNEPLSNEDRNLLSVAYKNVVGARRSSWRVISSIEQKTMADGNEKKLEKVKAYREKIEKELETVCNDVLSLLDKFLIKNCNDFQYESKVFYLKMKGDYYRYLAEVASGEKKNSVVEASEAAYKEAFEISKEQMQPTHPIRLGLALNFSVFYYEIQNAPEQACLLAKQAFDDAIAELDTLNEDSYKDSTLIMQLLRDNLTLWTSDQQDEEAGEGN | 2
2 | 14-3-3η (purified, recombinant) (natural protein, UniProt Q04917 1-246, looked up, 14-3-3 protein eta; also called purified 14-3-3η; source: purified recombinant) MGDREQLLQRARLAEQAERYDDMASAMKAVTELNEPLSNEDRNLLSVAYKNVVGARRSSWRVISSIEQKTMADGNEKKLEKVKAYREKIEKELETVCNDVLSLLDKFLIKNCNDFQYESKVFYLKMKGDYYRYLAEVASGEKKNSVVEASEAAYKEAFEISKEQMQPTHPIRLGLALNFSVFYYEIQNAPEQACLLAKQAFDDAIAELDTLNEDSYKDSTLIMQLLRDNLTLWTSDQQDEEAGEGN | 2
